Values of other authors in patent publication US8287850B2, “Conjugates of hydroxyalkyl starch and a protein, prepared by reductive amination” (Fresenius Kabi Deutschland GmbH, priority 2004, dated 2012).

Details: cited from earlier work

Substance: activated protein C
- circulatory activity half-life in vivo: less than 30 min
